Results on 23 molecules are retold here after patent US20230054634A1 (INSTYTUT BIOLOGII DO WIADCZALNEJ IM MARCELEGO NENCKIEGO …, published 2023).

To fix the notation:
B1: G7K-1 (peptide)
peptide: KYQKLSYLDFQYQLD
notes: also called G7K-1 variant
B2: G7K11 (peptide)
peptide: YQKLSYLDFQKQLD
B3: G7K2 (peptide)
peptide: YKKLSYLDFQYQLD
notes: also called G7 variant with lysine in position 2
B4: G7K13 (peptide)
peptide: YQKLSYLDFQYQKD
B5: G7K15 (peptide)
peptide: YQKLSYLDFQYQKDK
B6: G7 N-terminal (peptide)
peptide: Biotin-YQKLSYL
notes: also called N-terminal (YQKLSYL); short variant of G7
B7: G7 C-terminal (peptide)
peptide: Biotin-DFQYQLD
notes: also called C-terminal (DFQYQLD); short variant of G7
B8: G7 central portion (peptide)
peptide: Biotin-LSYLDFQ
notes: also called central (LSYLDFQ); short variant of G7
B9: G25 peptide (peptide)
peptide: Biotin-NHEVEDEIIWEEFT
B10: G14 peptide (peptide)
peptide: Biotin-HSVKIRAADVRILN
B11: G6 peptide (peptide)
peptide: RWKQPRTYQKLSYL
B12: G16 peptide (peptide)
peptide: Biotin-WSSWSEAIEFGSDD
B13: G21 peptide (peptide)
peptide: VLGFLFKRFLRIQR
B14: G15 peptide (peptide)
peptide: Biotin-ADVRILNWSSWSEA
B15: G3 peptide (peptide)
peptide: Biotin-IERFNPPSNVTVRC
B16: G22 peptide (peptide)
peptide: RFLRIQRLFPPVPQ
B17: G5 peptide (peptide)
peptide: NTTHCLVRWKQPRT
B18: G7 variant (A10) (peptide)
peptide: YQKLSYLDFAYQLD
B19: G7 variant (A11) (peptide)
peptide: YQKLSYLDFQAQLD
notes: ELISA as for the biotin-labelled peptides
B20: G7 variant (A13) (peptide)
peptide: YQKLSYLDFQYQAD
notes: ELISA as for the biotin-labelled peptides; also called Al3
B21: G7 variant (A14) (peptide)
peptide: YQKLSYLDFQYQLA
notes: as for B19
B22: G7 variant (A12) (peptide)
peptide: YQKLSYLDFQYALD
notes: ELISA as for the biotin-labelled peptides; also called Al2
B23: G7 variant (A16) (peptide)
peptide: KQPRTYQKLSYLDFQYQLD
notes: ELISA as for the biotin-labelled peptides; also called W2

Where no end group is shown, it is not given here. The star is where a group is joined. Biotin = O=C1N[C@H]2[C@H](CS[C@H]2CCCCC(=O)*)N1

In one test the target is T1, recombinant human GM-CSF protein, Myc-tagged/His-tagged (human, UniProt P04141 18-144).
T1 construct: also called Granulocyte Macrophage Colony Stimulating Factor; CSF2; not shown: Myc tag and His tag from the expression vector
T1 sequence (P04141 18-144): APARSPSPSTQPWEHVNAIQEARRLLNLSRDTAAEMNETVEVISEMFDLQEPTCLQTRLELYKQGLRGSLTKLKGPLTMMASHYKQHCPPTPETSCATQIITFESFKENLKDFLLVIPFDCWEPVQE
The experiment in a line: ELISA on GM-CSF, relative to G7. For orientation: In an ELISA, binding on a coated surface is turned into a signal by an enzyme label.
Consider B1, for which the Relative binding was determined as 95.

Take B2: the Relative binding turned out to be 108.

On to B3, for which the Relative binding was 2.

For B4, the Relative binding turned out to be 108.

B5: the Relative binding was determined as 60.

For a further test, the target named is T1, recombinant human GM-CSF protein, …. The experiment in a line: ELISA, GM-CSF coated, biotin-labelled peptide. As to the method: (§1) Next, unbound proteins were washed out, then the wells were blocked with 5% BSA (bovine serum albumin) in saline and peptides labeled with N-terminal biotin (purchased from GenScript) were added. […] HRP catalyzes the conversion of chromogenic substrates into colored products. The amount of bound peptide was proportional to the amount of the colored product, and it was measured using a spectrophotometer.
(SEQ ID NO: 1). […] These peptides, labeled with a N-terminal biotin, were purchased from GenScript.
For B6, the binding result is “no binding”.

For the molecule B7, the binding result is “no binding”.

Regarding B8, the binding result is given as “no binding”.

Another test has the same target. Nature of the test: ELISA, GM-CSF coated, biotin-labelled peptide, anti-biotin detection. As to the method: as §1
With B9, the binding result is given as “binds”.

Take B10: the binding result is listed as “binds”.

The next test shares this target. The experiment in a line: SPR (BIAcore 3000), GM-CSF immobilised, peptide injected.
As for B11, the binding result is given as “binds”.

As to B12, the binding result is “binds”.

Regarding B13, the binding result was “binds”.

Regarding B14, the binding result is given as “binds”.

For the molecule B15, the binding result is “binds”.

Regarding B16, the binding result is reported as “binds”.

Turning to B17, the binding result is “binds”.

A further test shares this target. Nature of the test: ELISA, GM-CSF coated. The protocol: as §1
Consider B18, for which the binding result was “binds”.

For the molecule B19, the binding result is given as “binds”.

Regarding B20, the binding result is “binds”.

On to B21, for which the binding result is on record as “binds”.

For B22, the binding result is listed as “binds”.

Turning to B23, the binding result is reported as “binds”.
